# Experimental data: the nanobody polyreactivity screen of Harvey et al. (2022)
# Experiment: yeast display, Sf9 membrane polyspecificity reagent, FACS + sequencing; frameworks hold sequencing errors
# How it was run: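 Nanobodies from a synthetic yeast display library (Saccharomyces cerevisiae BJ5465), induced 36–48 hours with galactose, were stained 1 hour at 4 °C with 10% biotinylated, detergent-solubilized Sf9 membrane reagent, enriched on streptavidin microbeads, then FACS-sorted. Anti-HA (expression) and streptavidin (reagent binding) fluorescence set low and high (top ~1%) gates. Polyreactivity labels come from the gate of origin. Genes were colony-PCR amplified, MiSeq 2 × 250 sequenced and filtered by CDR length.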
row,Sequence,polyreactivity (PSR sort gate)
1,QVQLVESGGGLVQAGGSLRLSCAPSGFTFGLYAMGWYRQAPGKERELVAAISWSGGRTYYADSVKGRFTISRDNAKNTVYLQMNSLKPEDTAVYYCAAVNKARSEDYGYWGQGTQVTVSS,high polyreactivity
2,QVQLVESGGGLVQAGGSLRLSCAPSGFTFGSNAMGWYRQAPGKERELVAAITWRGGSTYYADSVKGRFTISRDNAKNTVYLQMNSLKPEDTAVYYCAAVRSASSWQYIWLKYYYWGQGTQVTVSS,high polyreactivity
3,QVQLVESGGGLVQAGGSLRLSCAPSGFTFLWYAMGWYRQAPGKERELVAGISSDGSTNADSVKGRFTISRDNAKNTVYLQMNSLKPEDTAVYYCDADYSSPWQAVQGDDYWGQGTQVNVSS,low polyreactivity
4,QVQLVESGGGLVQAGGSLRLSCAPSGFTFRYYAMAWYRQAPGKEREFVAAISWSGGSTYYADSVKGRFTISRDNAKNTVYLQMNSLKPEDTAVYYCAAYYPLWGWGYDYWGQGTQVTVSS,high polyreactivity
5,QVQLVESGGGLVQAGGSLRLSCAPSGFTFSRYAMGWYRQAPGKERELVAAITRGGGNTYYADSVKGRFTISRDNAKNTVYLQMNSLKPEDTAVYYCNAQVGNFGYRSGGYDYWGQGTQVTVSS,high polyreactivity
6,QVQLVESGGGLVQAGGSLRLSCAPSGFTIGYYAMGWYRQAPGKEMELVAGISFSGTSTYYADSVKGRFTFSRDNAKNTVYLLMNSLKPEDTAVYYCNKVYYSAASKHKEYWGQGTQVTVSS,high polyreactivity
7,QVQLVESGGGLVQAGGSLRLSCAPSGFTSWQYAMGWYRPAPGKERELVAAISVSGASTYYADSVKGRFTISRDNAKNTVYLQMNSLKPEDTAVYYCAAAYVRYPTTRYFYWGQGTQVTVSS,high polyreactivity
8,QVQLVESGGGLVQAGGSLRLSCAPSGGTFWIYAMGWYRQAPGKERELVAGITTSGATTYYADSVKGRFTISRDNAKNTVYLQMNSLKPEDTAVYYCAAVIRPRYYQVRPRYDYWGQGTQVTVSS,low polyreactivity
9,QVQLVESGGGLVQAGGSLRLSCAPSGGTYIYAIGWYRQAPGKERDLVAVITSRSGSTYYADSVKGRFTISRDNAKNTVYLQMISLKPEDTAVYYCAAYTRVRTDPGTSFGYWGQCTQVTVSS,high polyreactivity
10,QVQLVESGGGLVQAGGSLRLSCAPSGIIFKGYAMGWSRQAPGKERELVAAISHNADSTYADSVKGRFTISRDNAKNTVYLQMNSLKPEDTAVYYCNADYLYHQTSRGKYYSWGQGTQVTVSS,low polyreactivity
11,QVQLVESGGGLVQAGGSLRLSCAPSGITFFWKAKGWYRQAPGKERELVAAISSGAGTTYADSVKGRFTISRDNAKNTVYLQMNSLKPEDTAVYFCAARRYRYAYGPYNYWGQGSQVTVSS,low polyreactivity
12,QVQLVESGGGLVQAGGSLRLSCAPSGITFSHYAMGWYRQAPGKERELVAGITWSGGRTYYADSVKGRFTISRDNAKNTVYLQMNSLKPEDTAVYYCAPIHRTGYDMDYWGLGTQVTVSS,low polyreactivity
13,QVQLVESGGGLVQAGGSLRLSCAPSGITFTHYVMGWYRQAAGKERELVAAITSGGRTNYADSVKGRFTISRDNAKNTVYLQMNSLIPEDTAVYYCNAVKRVGDYWGRSFDYDYWGQGTKVTVSS,high polyreactivity
14,QVQLVESGGGLVQAGGSLRLSCAPSGRIFSFNTMVLYRHAPGTEREFVATIRYSGGSTYADSVKGRFTISRDNAKNTVYLQMNSLKPEDTAVYYCAAAWWSYKFNRDFDYWGQGTQVTVSS,low polyreactivity
15,QVQLVESGGGLVQAGGSLRLSCAPSGRIFSYFAMGWYRQAPGKERELVAAISGNGGSTYYADSVKGRFTISRDNAKNTVYLQMNSLKPEDTAVYYCAADWWSSDWAYLYPYSYDYWGQGTQVTVSS,low polyreactivity
16,QVQLVESGGGLVQAGGSLRLSCAPSGRIFTEYVMGWYRQAPGKERELVAAAITRGGSTNYADSVKGRFTISRDNAKNTVYLQMISLKPEDTAVYYFNKDDWPFSRQLYTGKYDSWGQGTQVTVSS,low polyreactivity
17,QVQLVESGGGLVQAGGSLRLSCAPSGRIFTGYAMGWYRPEPGQEWELVAASTSSGGSTYYADSVKGRVTISRDYAKNTVYLQMNSLKPEDTAVYYCNKVGRPRYNYWGQGTEVTVSS,high polyreactivity
18,QVQLVESGGGLVQAGGSLRLSCAPSGRIIFYNAMGWYRQAPGKERELVAAISIGGRTYYADSVKGRFTISRDNAKNTVYLQMNSLKPEDTAVYYCAALGYPYLRSGYWGQGTQVTVSS,high polyreactivity
19,QVQLVESGGGLVQAGGSLRLSCAPSGRIILRYTMGRYRQARGKERQLVAAISARTTGTYYADSVKGRFTISRDNAKNTFYLQLNSLKPEDTAVYYCAAKCKLSRVLYSWGQGTQVTVSS,low polyreactivity
20,QVQLVESGGGLVQAGGSLRLSCAPSGRSFASYAMGWYRQAPGKERELVAAISKSGGRTYYADSVKGRFTISRDNAKNTVYLQMNSLKPEDTAVYYCAAYFWTRSGTPNYDYWGQGTQVTVSS,high polyreactivity
21,QVQLVESGGGLVQAGGSLRLSCAPSGRTFLAYAMGWYRQAPGKEREVVAAISSSGSTTYYADSVKGRFTISRDNAKNTVYLQMNSLKPEDTAVYYCAASNGYRSSYYRYDYWGQGTQVTVSS,low polyreactivity
22,QVQLVESGGGLVQAGGSLRLSCAPSGRTFQQYAMGCYRQAPGKDREFVAAITFSGGTTYFADSVKGRFTISRDNAKNTVYFQMNSLKPEDTAVYYCAADIYYWSFYYSRYDYWGQGTQVTVSS,high polyreactivity
